Reference: article PMC5516924 (Biochemistry, 2016)

Assays:
[1] = molecular target: the molecule itself; assay: crystal structure
[2] = molecular target: the molecule itself; assay: SEC

Row | Protein | stoichiometry N [1] | stoichiometry N [2]
1 | yGsy2-R589A/R592A (enzyme, Saccharomyces cerevisiae) MSRDLQNHLLFETATEVANRVGGIYSVLKSKAPITVAQYKDHYHLIGPLNKATYQNEVDILDWKKPEAFSDEMRPVQHALQTMESRGVHFVYGRWLIEGAPKVILFDLDSVRGYSNEWKGDLWSLVGIPSPENDFETNDAILLGYTVAWFLGEVAHLDSQHAIVAHFHEWLAGVALPLCRKRRIDVVTIFTTHATLLGRYLCASGSFDFYNCLESVDVDHEAGRFGIYHRYCIERAAAHSADVFTTVSQITAFEAEHLLKRKPDGILPNGLNVIKFQAFHEFQNLHALKKEKINDFVRGHFHGCFDFDLDNTLYFFIAGRYEYKNKGADMFIEALARLNYRLKVSGSKKTVVAFIVMPAKNNSFTVEALKGQAEVRALENTVHEVTTSIGKRIFDHAIRYPHNGLTTELPTDLGELLKSSDKVMLKRRILALRRPEGQLPPIVTHNMVDDANDLILNKIRQVQLFNSPSDRVKMIFHPEFLNANNPILGLDYDEFVRGCHLGVFPSYYEPWGYTPAECTVMGVPSITTNVSGFGAYMEDLIETNQAKDYGIYIVDRRFKAPDESVEQLVDYMEEFVKKTRRQRINQRNATEALSDLLDWKRMGLEYVKARQLALRRGYPDQFRELVGEELNDSNMDALAGGKKLKVARPLSVPGSPRDLRSNSTVYMTPGDLGTLQEVNNADDYFSLGVNPAADDDDDGPYADDS | 4 | –
2 | yGsy2-R581A/R592A (enzyme, Saccharomyces cerevisiae) MSRDLQNHLLFETATEVANRVGGIYSVLKSKAPITVAQYKDHYHLIGPLNKATYQNEVDILDWKKPEAFSDEMRPVQHALQTMESRGVHFVYGRWLIEGAPKVILFDLDSVRGYSNEWKGDLWSLVGIPSPENDFETNDAILLGYTVAWFLGEVAHLDSQHAIVAHFHEWLAGVALPLCRKRRIDVVTIFTTHATLLGRYLCASGSFDFYNCLESVDVDHEAGRFGIYHRYCIERAAAHSADVFTTVSQITAFEAEHLLKRKPDGILPNGLNVIKFQAFHEFQNLHALKKEKINDFVRGHFHGCFDFDLDNTLYFFIAGRYEYKNKGADMFIEALARLNYRLKVSGSKKTVVAFIVMPAKNNSFTVEALKGQAEVRALENTVHEVTTSIGKRIFDHAIRYPHNGLTTELPTDLGELLKSSDKVMLKRRILALRRPEGQLPPIVTHNMVDDANDLILNKIRQVQLFNSPSDRVKMIFHPEFLNANNPILGLDYDEFVRGCHLGVFPSYYEPWGYTPAECTVMGVPSITTNVSGFGAYMEDLIETNQAKDYGIYIVDRRFKAPDESVEQLVDYMEEFVKKTRAQRINQRNRTEALSDLLDWKRMGLEYVKARQLALRRGYPDQFRELVGEELNDSNMDALAGGKKLKVARPLSVPGSPRDLRSNSTVYMTPGDLGTLQEVNNADDYFSLGVNPAADDDDDGPYADDS | – | 4
3 | yGsy2-R581C/R592C (enzyme, Saccharomyces cerevisiae) MSRDLQNHLLFETATEVANRVGGIYSVLKSKAPITVAQYKDHYHLIGPLNKATYQNEVDILDWKKPEAFSDEMRPVQHALQTMESRGVHFVYGRWLIEGAPKVILFDLDSVRGYSNEWKGDLWSLVGIPSPENDFETNDAILLGYTVAWFLGEVAHLDSQHAIVAHFHEWLAGVALPLCRKRRIDVVTIFTTHATLLGRYLCASGSFDFYNCLESVDVDHEAGRFGIYHRYCIERAAAHSADVFTTVSQITAFEAEHLLKRKPDGILPNGLNVIKFQAFHEFQNLHALKKEKINDFVRGHFHGCFDFDLDNTLYFFIAGRYEYKNKGADMFIEALARLNYRLKVSGSKKTVVAFIVMPAKNNSFTVEALKGQAEVRALENTVHEVTTSIGKRIFDHAIRYPHNGLTTELPTDLGELLKSSDKVMLKRRILALRRPEGQLPPIVTHNMVDDANDLILNKIRQVQLFNSPSDRVKMIFHPEFLNANNPILGLDYDEFVRGCHLGVFPSYYEPWGYTPAECTVMGVPSITTNVSGFGAYMEDLIETNQAKDYGIYIVDRRFKAPDESVEQLVDYMEEFVKKTRCQRINQRNRTECLSDLLDWKRMGLEYVKARQLALRRGYPDQFRELVGEELNDSNMDALAGGKKLKVARPLSVPGSPRDLRSNSTVYMTPGDLGTLQEVNNADDYFSLGVNPAADDDDDGPYADDS | – | 4
